The record followed here is US20130330359A1 (AbbVie / Abbott, published 2013).

Assay [1] concerns the target T1, mouse:human chimeric antibody (used as human IgG / human IgG Fc antigen).
T1 construct: also called Hu IgG; human IgG Fc portion
Briefly: direct EIA: mouse:human chimeric antibody coated at 1.0 ug/mL; supernatant diluted 1:125; goat anti-mouse IgG Fc-HRPO. The method, then:
(§1) A mouse:human chimeric antibody or RGMc-huFc was coated on the solid phase of micro-titer EIA plates at 1.0 ug/mL. After the antigen had been coated on the solid phase, it was removed and any open binding sites on the plates were blocked using BSA block solution. The wells were washed with distilled water. Cell supernatants and control reagents were added to the blocked plates and allowed to incubate at room temperature for at least one hour. The negative control was a purified mAb from a different antigen system. The positive control for human IgG was a purified anti-hu IgG mAb developed against another antigen containing human IgG Fc carrier protein. The RGMc positive control is Novus mab 1C12. Following this incubation, the solutions were removed from the plates and they were washed with distilled water. Goat anti-mouse IgG Fc-HRPO (Jackson Immunoresearch) diluted to approximately 200 ng/mL in block solution was added to the plates and allowed to incubate for 30 minutes at room temperature. The plates were washed with distilled water and o-phenylenediamine substrate (Abbott Laboratories) was used as the chromogen to generate signal. Plates were read at 492 nm and the results were analyzed.

In assay [2] the target is T2, RGMc antigen: amino acids 33-391 of RGMc followed by human Fc (human, UniProt Q6ZVN8 33-391).
T2 construct: also called RGMc-huFc; RGMc-Fc; not shown: human Fc
T2 sequence: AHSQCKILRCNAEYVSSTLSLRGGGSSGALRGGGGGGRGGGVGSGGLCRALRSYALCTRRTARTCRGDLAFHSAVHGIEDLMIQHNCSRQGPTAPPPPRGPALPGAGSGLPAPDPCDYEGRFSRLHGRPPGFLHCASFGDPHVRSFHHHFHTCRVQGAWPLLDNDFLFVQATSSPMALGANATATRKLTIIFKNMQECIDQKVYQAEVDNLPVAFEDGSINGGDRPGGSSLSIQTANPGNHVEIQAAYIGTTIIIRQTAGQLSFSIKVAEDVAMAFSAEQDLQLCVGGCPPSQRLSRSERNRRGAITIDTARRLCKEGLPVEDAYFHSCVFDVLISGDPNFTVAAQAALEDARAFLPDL
Briefly: direct EIA: RGMc-huFc coated at 1.0 ug/mL; supernatant diluted 1:125; goat anti-mouse IgG Fc-HRPO. The method, then: as §1

Assay [3] deals with T3, carrier free RGMc (R&D Systems) (human, UniProt Q6ZVN8 36-400).
T3 construct: also called RGMc-CF
T3 sequence (looked up): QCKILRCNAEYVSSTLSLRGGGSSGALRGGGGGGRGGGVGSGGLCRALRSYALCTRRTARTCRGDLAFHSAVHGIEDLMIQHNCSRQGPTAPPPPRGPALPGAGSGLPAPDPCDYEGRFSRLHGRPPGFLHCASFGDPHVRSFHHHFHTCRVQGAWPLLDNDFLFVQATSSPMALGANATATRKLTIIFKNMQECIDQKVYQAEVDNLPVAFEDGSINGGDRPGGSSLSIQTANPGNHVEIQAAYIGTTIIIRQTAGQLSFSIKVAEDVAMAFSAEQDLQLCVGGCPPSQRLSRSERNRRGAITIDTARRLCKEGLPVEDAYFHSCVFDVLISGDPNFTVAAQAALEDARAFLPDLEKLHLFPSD
The experiment in a line: direct EIA: carrier-free RGMc coated at 0.5 ug/mL; supernatant diluted 1:125; goat anti-mouse IgG-HRPO. On the procedure: Clones were then tested for cross-reactivity with RGMa and RGMb by EIA. Carrier free RGMa, RGMb, or RGMc (R&D Systems) was coated on the solid phase of micro-titer EIA plates at 0.5 ug/mL. After the antigen had been coated on the solid phase, it was removed and any open binding sites on the plates were blocked using fish gel block solution. The wells were washed with distilled water following this incubation. Cell supernatants and control reagents were added to the blocked plates and allowed to incubate at room temperature for at least one hour. The negative control was a purified mouse mAb from a different antigen system. The positive control for RGMa, RGMb, & RGMc was a goat anti-RGMa, RGMb, or RGMc polyclonal antibody (R&D Systems). Following this incubation, the solutions were removed from the plates and they were washed with distilled water. Donkey anti-Goat IgG-HRPO diluted to approximately 200 ng/mL in block solution was added to the plates with the positive control test samples and goat anti-mouse IgG-HRPO (Jackson Immunoresearch) diluted to approximately 200 ng/mL in block solution was added to the plates with the fusion #1 test samples. All plates were allowed to incubate for 30 minutes at room temperature. The plates were washed with distilled water and o-phenylenediamine substrate was used as the chromogen to generate signal. Plates were read at 492 nm and the results were analyzed.

B1: 1A-2860-475 (antibody, V domains shown)
VH: DVLLQESGPDLVKPSQSLSLTCTVTGYSISSGYSWHWIRQFPGNKLEWMAYIHYTGNTNYNPSLKSRISITRDTSKNQFFLHLNSVTTEDTATYYCALFGLSGFWGQGTLVTVSA
VL: DVLMTQTPLSLPVSLGDQASISCRSSQTIVHSNGNTYLDWYLQKPGQSPKVLIYKVSNRFSGVPDRFSGSGSGTDFTLKISRVEAEDLGVYFCLQGSHVPWTFGGGTQLEIKR
notes: The parent line 1A-2860 and subclone 1A-2860-177 used in the assays are treated here as the same antibody; also called 1A-2860-177
Consider B1, for which the figures for the “absorbance at 492 nm” value in assay [1], in assay [2] and in assay [3] were 0.06, 1.66 and 1.34, respectively.

B2: 1B-3363-715 (antibody, V domains shown)
VH: DVQLQESGPDLVKPSQSLSLTCTVTGYSITSGYSWHWIRQFPGNKLEWMGYIHYSGNTDYNPSLKSRISFTRDTSKNQFFLQLNSVTTEDTATYFCAIGTGPWGQGTTLTVSS
VL: DVLMTQTPLSLPVSLGDQASISCRSSQNIVHSNGHTYLEWYLQKPGQSPKLLIYKVSNRFSGVPDRFSGSGSGTDFTLKISRVEAEDLGVYYCFQGSHVPWTFGGGTKLEIKR
notes: The parent line 1B-3363 and subclone 1B-3363-502 used in the assays are treated here as the same antibody; also called 1B-3363-502
B2: the “absorbance at 492 nm” value in assay [1] was found to be 0.07; in assay [2], 2.8; in assay [3], 2.53.

B3: 1A-2989-187 (antibody, V domains shown)
VH: EVQLQQSGAELVRSGASVKLSCTASGFNIRDFYIHWVKQRPEQGLEWLGWIDPENGDIEYAPKFQGKATMTADTSSNTAYLQLNSLTSEDTALYYCNGNGYYLDYWGQGTTLTVSS
VL: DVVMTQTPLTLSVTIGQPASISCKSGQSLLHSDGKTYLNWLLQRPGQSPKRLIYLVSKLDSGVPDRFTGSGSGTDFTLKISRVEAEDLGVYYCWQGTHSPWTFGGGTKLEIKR
B3: the “absorbance at 492 nm” value in assay [1] stood at 0.06; in assay [2] it was 1.55; in assay [3], 1.58.
